Measured values as given in the nanobody polyreactivity screen of Harvey et al. (2022).

Experiment: yeast display, Sf9 membrane polyspecificity reagent, FACS + sequencing; frameworks hold sequencing errors
Outline: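 Galactose induction of a Saccharomyces cerevisiae BJ5465 synthetic nanobody display library ran 36–48 hours. The cells were then stained for 1 hour at 4 °C with 10% biotinylated, detergent-solubilized Sf9 membrane reagent, pulled down on streptavidin microbeads and FACS-sorted into low and high (top ~1%) gates on expression and reagent-binding fluorescence. Labels for polyreactivity follow the gate of origin.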

Sequence | polyreactivity (PSR sort gate)
QVQLVESGGGLVQAGGSLRLSCAASGFTFQYYSMGWYRQAPGKERELVAAISSSGGSTYYADSVKGRFTISRDNAENTVYLQMNSLKPEDTAVYYCAIRVSTYGFSGYDYWGQGTQVTVSS | high polyreactivity
QDQLVDSGGGLVQAGGSLRLSCDASGIFDYYVMGWYRQAPGTERELVAAISKSVGSTYYADSVKGRFTISRDNAKNTVYLQMNSLKPEDTAVYYCAVENRYRFGYWGQGTQVTVSS | low polyreactivity
QVQLVESGGGLVQAGGSLRISCGASGSTFAQNVMGWDRQAPGKERELVAAITSSGSTNYADSVKGRFTISRDNAKNTVYLQMNSLKPEDSAVYYCAKDVLAPYSRHDYWGQGTQVTVSS | low polyreactivity
QVQLVESGGGLVQAGGSLRLSCAASGYIFYSCAMGWYRQAPGKERELVATISSGGSTYYSDSVKGRFTISRDNAKNTVYLQMNSLKPEDTAVYYCNAKMYKPPFDYWGQGTQVTVSS | low polyreactivity
QVQLVESGGGLVQAGGSLRLSCDASGSTFDVNTMGWYRQAPGKERELVAAIRLRGGSTYYADSVKGRFTISRDNAKNTVYLLMISLKPEDTAVYYCAADYTLIYDYCGQGTQVTVSS | low polyreactivity
QVQLVESGGGLVQAGGSLPLSCAASGFIFGTNTMGWYRQAPGKEREMVAAITSVGSTNYADSVKGRFTISRDNAKNTVYLQMNSLKPEDTAVYYCPATLYYQYGGDYWGQGTQVTVSS | low polyreactivity
QVQLVESGGGLVQAGGSLRLSCAASGRTFRLYAMGWSRQAPGKERELVAAITRGGRTNYADSVKGRFTISRDNAKTTVYLQMTSLKPEDTAVYYCAARYVERHTDYYYWGQGTQVTVSS | low polyreactivity
QVQHVESGGGLVQAGGSLRLSCAASGFNFAYNIMGWYRQAPGKERELVADISGTGSTNYADSVKGRFTISRDNAKNTVYLQMNSLKPEDTAVYYCATSGDRLVWGQGTQVTVSS | low polyreactivity
QVQLVESGGGLVQAGGSLRLSCAASGRISNFYSMGWYIQAPGKERELVAANRSGGSTNYADSVKGRFTISRDNAKYTVYLQMNSLKPEDTAVYYCAAVTGASPTRMDYWGQGTQVTVSS | high polyreactivity
QVQLVESGGGLDQAGGRLRLSCPASGRIFQANAMGRYRQAPGKERELVAAITNRGGSTYADSVKGRFTISRDNAKNTVYLQMNSLKPEDTAVYYCAADVSRYVQRDNYWGQGTQVTVSS | low polyreactivity
QVQLVESGGGLVQAGGSLRLSCAASGIIFSYYALGWYRQAPGKERELVAAITRGGGRTYYADSVKGRFTISRDNAKNTVSLQMNSLKPEDTAVYYCNALSRYVENDYWGQGTQVTVSS | high polyreactivity
QVQLQESGGGQVQAGGSLRLSCAASGYISTHYFMGWYRQAPGKDREFVAGISNGSITNYADSVKGRFTISRDNARNTVYLQMNSLKPEDTAVYYGAAFEWTYVRFGYWGQGTQVTVSG | high polyreactivity
QVQLVESGGGLVQAGGSLRLSCAASGSTFRHYAMGWYRQAPGKERELVAAISSTGGSTYYADSVKGRFTISRDNAKNTVYLQMNSLKPEDTAVYYCAARRLYWGQGTQVTVSS | high polyreactivity
QVQLVESGAGLVQAGGSLSLSCAASGSIFGYYTMGWYRQAPGKERELVAAISRSGTSTFYADSVKGRFTISRDNAKNTVYLQMNSLKQEDTAVYYCNAVGSGYRSWYDYWGQGTKVTVSS | high polyreactivity
QVQLVESGGGLVQAGGSLRLSCAASGRIFKYYAMGWYRQPPGKERELVAAISRSSGRTYYADSVKGRCTISRDNAKNTVYFQMIRLKPEDTAVYYCNALPSTVYLTYDYWGLGTQVTVSS | high polyreactivity
QVQLVESGGGLVLAGGSLRLSCAASGSIFQPNAMGWYRQAPGKERELVASIRGRGGDTYYADSVKGRFTISRDNAKNSVYLQMNSLKPEDTAVDYCAADYRWGQGTQVTVSS | low polyreactivity
QVQLVESGGGLVQAGGSLRLSCAASGIIFFYYVMGWYRQAPGKERELVAAISSDGSSTYYADSVKGRFTISRDNAKNTVNLQMNSQKPEDTAVYYCAAELILYPYDFNFWGQGTQVTVSS | high polyreactivity
QVQLVESGGGLVQAGGSLRLSCAASGSTFKRNAMGWYRQAPGKERELVAAISWRGTSTYYADSVKGRFTISRDNAKNTVYLQMNSLKPEDTAVYYCAADRGSSVRYGYWGQGTQVTVSS | high polyreactivity
QVQLVESGGGLVQAGGSLRLSCAASGSTFYYYAMGWSRQAPGQERELVAAISWRGSSTYYADAVQGRFTISRDNAKNTVYLQLNSLKPEDTAVSYCAAGYPGRVSGYRYGTRATYYYWGQGTQVTVSS | high polyreactivity
QVQLVESGGGLVQAGGSLRLSCAASGGILWFYAMGWYIQAPGKEREFVAAIDLGGGSTYYADSVKGRFTISRDNAKTTVYLQMNSLKPEDTAVYYCNAETSGHYSTIMDYWGQGTQVTVSS | low polyreactivity
QVQLVESGGGLVQAGGSLRLSCAASGSIFKYYAMGWYRQAPGKERQLVAVITSGGSTYYADSVKGRFTISRDNAKNTVYLQMNSLKPEDTAVYYCAAGVRAYNWGEYDYWGLGTQVTVSS | low polyreactivity
QVQLVESGGGLVQAGGSLRLSCAASGSTFSFNAMGWYRQAPGKERELVAAIRWSGGSTYYADSVKGRFTISRDNAKNTVYLQMNSLKPEDTAVYYCATYWKGGRPPYRYYYWGQGTQVTVSS | high polyreactivity
QVQLVESGGGLVQAGGSLRLSCAASGSTFSVNAMGWYRQAPGKERELVAAITRSGGSTYYEDSVKGRFTISRENAKNTVYLQMNSLKPEDTAVYYCAAVIFPLGEYWGQGTQVTVSS | low polyreactivity
QVQLVESGGGLVQAGGSLRLSCAASGYTFRYYAMGWYRQAPGKERELVAAINWSGGSTYYADSVKGRFTISRDNAKNTVYLQMNSLKPEDTAVYYCAADPDGDLDIDYDYWGQGTQVTVSS | low polyreactivity
QVQLVESGGGLVQAGGSLRLSCAAYGSTFSWYTMGWYRQAPGKERELVAAISWSGGRTYYADSVKGRFTISRDNAKNTVYLQMNSLKPEDTAVYYCAAYDYRYSLGDYQFYYWGQGTQVTVSS | low polyreactivity
QVQLVESGGGLVQAGGSLRLSCAASGRPFGGNTMGWYRQAPGKERALVAAISFSGGSTYYADSVKGRFSSSRDNAKNTVYFQMNSLKPEDTAVYYCARDDYSHSFLTYDYWGQGTQVTVSS | low polyreactivity
QVQLVESGGGLVQAGGSLRLSCAASGFIFGSYTMGWYRQAPGKERELVAAISSSVGRTYYADSVKGRFTISRDNAKNTVYLQMNSLKPEDTAVYYCAARRHGRVDYSQGSRESDYWGQGTQVTVSS | high polyreactivity
QVQLVESGGGLVQAGGSLRLSCAASGIIFYTYAMGWYRQAPGKEREFVAGIRWSGSSTYYADSVKGRFTISRDNAKNTVYLQMNCLNPEDTAVYYCATGQPYGPLFSMGYGYWGQVTQVTVSS | high polyreactivity
LVQLVESGGGLVQAGGSLRLSCAASGFTFGRNAMGWYRQSPGKEREFVADISGSVGSTYYADSVKGRFTISRDNAKNSVYLQMNRLIPEDTAVYYCAADTLYPRWEFDYWGQGTQVTVSS | high polyreactivity
QVKLVESGGGLVQAGGSLLLSCAASGITFSRNAMGLYREAPGKERELVAAINWTGGNTYYADSVKGRFTISRDNAKNTVYLQMISMKPEDTAVYYCAAERRCFVWGLGYWGQGTQVTVSS | low polyreactivity
